This passage reports Kd, koff and kon results from paper PMC5951583 (PLoS Pathogens, 2018).

Where “and” joins values, the source holds several entries; their conditions need not be identical. Equal entries are not always repeated.

For this test, the target named is HC-fragment of BoNT/DC fused to a C-terminal Streptag (HCDCS; AA 863–1285), wild-type (C. botulinum strain OFD05, UniProt A5JGM8 863-1285). Put plainly: SPR. The settings on record: both partners purified.

B1: GST-rSyt-II 1–61 (domain or fragment)
chain: MRNIFKRNQEPIVAPATTTATMPLAPAAPADNSTESTGTGESQEDMFAKLKDKFFNEINKI
notes: also called GST-Syt-II 1–61; isolated Syt-II
As to B1, the Kd (usually a measure of binding affinity in units of concentration) was 1800 nM, the dissociation rate constant (koff) (usually a measure of how fast the partners let go of each other) was determined as 0.24 s⁻¹ and the kon (commonly the rate constant with which the complex forms) turned out to be 230000 M⁻¹ s⁻¹.

B2: GST-rSyt-II 1–90 (domain or fragment)
chain: MRNIFKRNQEPIVAPATTTATMPLAPAAPADNSTESTGTGESQEDMFAKLKDKFFNEINKIPLPPWALIAMAVVAGLLLLTCCFCICKKC
notes: also called GST-Syt-II 1–90; Syt-II with its TMD
Consider B2, for which the koff was 0.49 s⁻¹ and 0.63 s⁻¹.
